Series [1] concerns the target T1, MTH1203 (Methanothermobacter thermautotrophicus …, UniProt O27271 1-636).
T1 sequence: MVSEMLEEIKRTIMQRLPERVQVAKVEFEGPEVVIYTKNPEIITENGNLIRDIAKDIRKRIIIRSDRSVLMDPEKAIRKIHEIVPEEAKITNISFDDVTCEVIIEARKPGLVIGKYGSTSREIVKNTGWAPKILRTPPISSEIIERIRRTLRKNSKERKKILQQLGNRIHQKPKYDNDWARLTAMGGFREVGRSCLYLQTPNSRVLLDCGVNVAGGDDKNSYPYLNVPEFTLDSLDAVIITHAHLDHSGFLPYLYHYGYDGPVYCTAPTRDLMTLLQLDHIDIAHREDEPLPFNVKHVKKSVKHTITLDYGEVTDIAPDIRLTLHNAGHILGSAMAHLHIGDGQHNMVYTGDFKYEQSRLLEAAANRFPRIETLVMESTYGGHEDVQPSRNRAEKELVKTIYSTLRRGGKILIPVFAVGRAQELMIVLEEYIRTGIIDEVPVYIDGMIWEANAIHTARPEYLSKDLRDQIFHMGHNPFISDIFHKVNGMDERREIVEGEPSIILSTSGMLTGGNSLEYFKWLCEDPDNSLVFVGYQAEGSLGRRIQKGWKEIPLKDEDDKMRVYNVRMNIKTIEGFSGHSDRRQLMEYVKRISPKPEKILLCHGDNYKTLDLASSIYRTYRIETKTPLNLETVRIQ
Kind of series: fluorescence anisotropy; 20 mM Tris pH 8.0, 1 M NaCl, 5 nM 5'-fluorescein RNA; temperature not stated. The settings on record: protein: recombinant; tags: His-tag (His-tagged construct used in titrations); label: 5' fluorescein; single strand. A general note: Polarisation of emitted light reports the rotation of a fluorescent probe.

Series [2] concerns the molecule itself. As to the kind of experiment: SEC-MALS; size exclusion chromatography in line with multiangle laser light scattering; MTH1203 alone; 0.5 M NaCl, or 0.7 M NaCl or KCl.

The values below come from publication PMC3095777, “Structure and Activity of a Novel Archaeal β-CASP Protein with N-Terminal KH Domains” (Structure(London, England:1993), 2011).

B1: C7 (ssRNA)
RNA: CCCCCCC
Turning to B1, the binding result in series [1] is given as “no binding”.

B2: MTH1203 (enzyme, Methanothermobacter thermautotrophicus, UniProt O27271 1-636, looked up)
chain: MVSEMLEEIKRTIMQRLPERVQVAKVEFEGPEVVIYTKNPEIITENGNLIRDIAKDIRKRIIIRSDRSVLMDPEKAIRKIHEIVPEEAKITNISFDDVTCEVIIEARKPGLVIGKYGSTSREIVKNTGWAPKILRTPPISSEIIERIRRTLRKNSKERKKILQQLGNRIHQKPKYDNDWARLTAMGGFREVGRSCLYLQTPNSRVLLDCGVNVAGGDDKNSYPYLNVPEFTLDSLDAVIITHAHLDHSGFLPYLYHYGYDGPVYCTAPTRDLMTLLQLDHIDIAHREDEPLPFNVKHVKKSVKHTITLDYGEVTDIAPDIRLTLHNAGHILGSAMAHLHIGDGQHNMVYTGDFKYEQSRLLEAAANRFPRIETLVMESTYGGHEDVQPSRNRAEKELVKTIYSTLRRGGKILIPVFAVGRAQELMIVLEEYIRTGIIDEVPVYIDGMIWEANAIHTARPEYLSKDLRDQIFHMGHNPFISDIFHKVNGMDERREIVEGEPSIILSTSGMLTGGNSLEYFKWLCEDPDNSLVFVGYQAEGSLGRRIQKGWKEIPLKDEDDKMRVYNVRMNIKTIEGFSGHSDRRQLMEYVKRISPKPEKILLCHGDNYKTLDLASSIYRTYRIETKTPLNLETVRIQ
notes: MTH1203 from Methanothermobacter thermautotrophicus strain delta H; mth1203 gene amplified from genomic DNA, cloned into pETYSBLIC-3C; predicted molecular mass 73.1 kDa; residues up to 636 named; Dimer at 0.5-0.7 M NaCl or KCl, monomer at 1 M NaCl; full cloning and purification details are in the Supplemental Experimental Procedures; also called β-CASP metallo-β-lactamase family nuclease; source: …
B2: in series [2], the “stoichiometry N” value was 2.

B3: A7 (ssRNA)
RNA: AAAAAAA
For the molecule B3, the binding result in series [1] is “no binding”.

B4: G7 (ssRNA)
RNA: GGGGGGG
On to B4, for which, in series [1], the binding result is reported as “no binding”.

B5: U7 (ssRNA)
RNA: UUUUUUU
Turning to B5, in series [1], the Kd came out at 9.2 µM.

For orientation: stoichiometry N means a count of units in the complex or per binding partner. The term Kd denotes the free concentration of one partner at which half of the binding sites on the other are occupied at equilibrium, for simple one-to-one binding.
